From IntAct's records for PubMed 20696938

B1: DNA topoisomerase 4 subunit A (Escherichia coli (strain K12)), P0AFI2 (parent)
chain: MSDMAERLALHEFTENAYLNYSMYVIMDRALPFIGDGLKPVQRRIVYAMSELGLNASAKFKKSARTVGDVLGKYHPHGDSACYEAMVLMAQPFSYRYPLVDGQGNWGAPDDPKSFAAMRYTESRLSKYSELLLSELGQGTADWVPNFDGTLQEPKMLPARLPNILLNGTTGIAVGMATDIPPHNLREVAQAAIALIDQPKTTLDQLLDIVQGPDYPTEAEIITSRAEIRKIYENGRGSVRMRAVWKKEDGAVVISALPHQVSGARVLEQIAAQMRNKKLPMVDDLRDESDHENPTRLVIVPRSNRVDMDQVMNHLFATTDLEKSYRINLNMIGLDGRPAVKNLLEILSEWLVFRRDTVRRRLNYRLEKVLKRLHILEGLLVAFLNIDEVIEIIRNEDEPKPALMSRFGLTETQAEAILELKLRHLAKLEEMKIRGEQSELEKERDQLQGILASERKMNNLLKKELQADAQAYGDDRRSPLQEREEAKAMSEHDMLPSEPVTIVLSQMGWVRSAKGHDIDAPGLNYKAGDSFKAAVKGKSNQPVVFVDSTGRSYAIDPITLPSARGQGEPLTGKLTLPPGATVDHMLMESDDQKLLMASDAGYGFVCTFNDLVARNRAGKALITLPENAHVMPPVVIEDASDMLLAITQAGRMLMFPVSDLPQLSKGKGNKIINIPSAEAARGEDGLAQLYVLPPQSTLTIHVGKRKIKLRPEELQKVTGERGRRGTLMRGLQRIDRVEIDSPRRASSGDSEE
partner: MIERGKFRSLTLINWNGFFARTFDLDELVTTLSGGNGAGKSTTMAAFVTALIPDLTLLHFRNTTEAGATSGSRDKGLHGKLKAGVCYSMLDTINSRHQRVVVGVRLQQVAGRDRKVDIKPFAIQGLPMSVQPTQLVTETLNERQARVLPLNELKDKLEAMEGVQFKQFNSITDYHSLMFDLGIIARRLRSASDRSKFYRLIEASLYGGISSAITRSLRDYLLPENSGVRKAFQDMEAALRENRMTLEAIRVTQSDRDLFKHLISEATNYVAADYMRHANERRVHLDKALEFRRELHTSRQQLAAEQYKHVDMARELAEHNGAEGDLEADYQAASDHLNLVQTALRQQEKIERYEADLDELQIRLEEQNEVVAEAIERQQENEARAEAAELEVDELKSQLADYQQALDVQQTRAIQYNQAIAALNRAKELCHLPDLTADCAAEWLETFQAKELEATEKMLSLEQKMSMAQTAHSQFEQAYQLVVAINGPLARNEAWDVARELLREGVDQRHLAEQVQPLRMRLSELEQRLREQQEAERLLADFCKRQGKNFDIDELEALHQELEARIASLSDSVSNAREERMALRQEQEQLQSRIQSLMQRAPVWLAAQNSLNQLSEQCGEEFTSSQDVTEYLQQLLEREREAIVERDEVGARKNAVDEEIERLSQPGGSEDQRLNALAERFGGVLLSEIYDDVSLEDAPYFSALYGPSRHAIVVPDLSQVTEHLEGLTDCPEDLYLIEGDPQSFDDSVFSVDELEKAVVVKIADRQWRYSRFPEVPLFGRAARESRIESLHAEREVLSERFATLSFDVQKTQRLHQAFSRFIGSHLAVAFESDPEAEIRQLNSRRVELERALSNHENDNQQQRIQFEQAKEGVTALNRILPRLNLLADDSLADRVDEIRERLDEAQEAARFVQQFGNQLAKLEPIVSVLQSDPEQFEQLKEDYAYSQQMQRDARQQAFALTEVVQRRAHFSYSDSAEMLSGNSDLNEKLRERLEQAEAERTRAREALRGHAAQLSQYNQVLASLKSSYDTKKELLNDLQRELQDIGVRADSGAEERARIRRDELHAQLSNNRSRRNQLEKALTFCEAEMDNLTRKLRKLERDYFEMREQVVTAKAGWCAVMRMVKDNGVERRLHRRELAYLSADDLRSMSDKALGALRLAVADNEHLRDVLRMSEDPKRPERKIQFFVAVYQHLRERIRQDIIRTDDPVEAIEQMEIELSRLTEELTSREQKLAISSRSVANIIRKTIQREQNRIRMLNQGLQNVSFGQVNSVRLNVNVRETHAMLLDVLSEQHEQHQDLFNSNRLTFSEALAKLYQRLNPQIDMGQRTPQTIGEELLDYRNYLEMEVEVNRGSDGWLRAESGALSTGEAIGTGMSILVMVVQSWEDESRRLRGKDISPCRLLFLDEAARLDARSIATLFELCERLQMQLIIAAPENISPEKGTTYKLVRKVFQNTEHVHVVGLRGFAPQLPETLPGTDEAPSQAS

Variants of: B1
Conditions: with mukb_ecoli mukB

Effect of a mutation on the interaction, disrupting interaction:
R705E;R729A
R705E
R729A
